In patent publication US20200190168A1 (US Dept. of Health and Human Services, published 2020):

B1: CR2 (complement receptor 2, CD21) on IgG+ B cells of human PBMCs (receptor)
chain: ISCGSPPPILNGRISYYSTPIAVGTVIRYSCSGTFRLIGEKSLLCITKDKVDGTWDKPAPKCEYFNKYSSCPEPIVPGGYKIRGSTPYRHGDSVTFACKTNFSMNGNKSVWCQANNMWGPTRLPTCVSVFPLECPALPMIHNGHHTSENVGSIAPGLSVTYSCESGYLLVGEKIINCLSSGKWSAVPPTCEEARCKSLGRFPNGKVKEPPILRVGVTANFFCDEGYRLQGPPSSRCVIAGQGVAWTKMPVCEEIFCPSPPPILNGRHIGNSLANVSYGSIVTYTCDPDPEEGVNFILIGESTLRCTVDSQKTGTWSGPAPRCELSTSAVQCPHPQILRGRMVSGQKDRYTYNDTVIFACMFGFTLKGSKQIRCNAQGTWEPSAPVCEKECQAPPNILNGQKEDRHMVRFDPGTSIKYSCNPGYVLVGEESIQCTSEGVWTPPVPQCKVAACEATGRQLLTKPQHQFVRPDVNSSCGEGYKLSGSVYQECQGTIPWFMEIRLCKEITCPPPPVIYNGAHTGSSLEDFPYGTTVTYTCNPGPERGVEFSLIGESTIRCTSNDQERGTWSGPAPLCKLSLLAVQCSHVHIANGYKISGKEAPYFYNDTVTFKCYSGFTLKGSSQIRCKADNTWDPEIPVCEKETCQHVRQSLQELPAGSRVELVNTSCQDGYQLTGHAYQMCQDAENGIWFKKIPLCKVIHCHPPPVIVNGKHTGMMAENFLYGNEVSYECDQGFYLLGEKKLQCRSDSKGHGSWSGPSPQCLRSPPVTRCPNPEVKHGYKLNKTHSAYSHNDIVYVDCNPGFIMNGSRVIRCHTDNTWVPGVPTCIKKAFIGCPPPPKTPNGNHTGGNIARFSPGMSILYSCDQGYLLVGEALLLCTHEGTWSQPAPHCKEVNCSSPADMDGIQKGLEPRKMYQYGAVVTLECEDGYMLEGSPQSQCQSDHQWNPPLAVCRSRSLAPVLCGIAAGLILLTFLIVITLYVISKHRARNYYTDTSQKEAFHLEAREVYSVDPYNPAS
notes: whole, on cells; also called gp350 receptor
B2: CR2-Ig (chimeric molecule of CR2 SCR1-2 domain and IgG Fc region) (Fc fusion)
chain: ISCGSPPPILNGRISYYSTPIAVGTVIRYSCSGTFRLIGEKSLLCITKDKVDGTWDKPAPKCEYFNKYSSCPEPIVPGGYKIRGSTPYRHGDSVTFACKTNFSMNGNKSVWCQANNMWGPTRLPTCVSVFPLE
notes: domain: SCR1-2; not shown: IgG Fc region

Assays:
[1] = biological target: T1, gp350 B95-8 (2-425) D296R Avi-His (Epstein Barr Virus (B95-8), UniProt P03200 2-425); assay: flow cytometry staining of IgG+ B cells in human PBMCs, co-stained with anti-CD21
T1 construct: also called D296R gp350 probe; D296R mutant

[2] = biological target: T2, gp350 B95-8 (2-425) D296R/I160R Avi-His (Epstein Barr Virus (B95-8), UniProt P03200 2-425); assay: as above
T2 construct: also called gp350 D296R/I160R probe

[3] = biological target: gp350 B95-8 (2-425) D296R/P158R Avi-His (Epstein Barr Virus (B95-8), UniProt P03200 2-425); assay: biolayer interferometry (Octet), CR2-Ig on protein A biosensors
[4] = biological target: T3, gp350 B95-8 (2-425) D296R/P158N*/I160T Avi-His (Epstein Barr Virus (B95-8), UniProt P03200 2-425); assay: as above
T3 construct: also called D296R/P158N/I160T (glycan addition at 158)

[5] = biological target: gp350 B95-8 (2-425) D296R/P158R/I160R Avi-His (Epstein Barr Virus (B95-8), UniProt P03200 2-425); assay: as above
[6] = biological target: T2, gp350 B95-8 (2-425) D296R/I160R Avi-His; assay: as above

| Binder | binding result [1] | binding result [2] | binding result [3] | binding result [4] | binding result [5] | binding result [6] |
| --- | --- | --- | --- | --- | --- | --- |
| B1 | binds | no binding |  |  |  |  |
| B2 |  |  | no binding | no binding | no binding | no binding |
